According to paper PMC11077590, “The concerted action of SEPT9 and EPLIN modulates the adhesion and migration of human fibroblasts” (Life Science Alliance, 2024):

T1: His6-SEPT9 ΔNΔC (G domain, aa 295-567) (UniProt Q9UHD8 295-567)
T1 construct: also called ΔNΔC-SEPT9; source: E. coli BL21DE3, purified (HisTrap IMAC, buffered in PBS by PD10)
T1 sequence (looked up): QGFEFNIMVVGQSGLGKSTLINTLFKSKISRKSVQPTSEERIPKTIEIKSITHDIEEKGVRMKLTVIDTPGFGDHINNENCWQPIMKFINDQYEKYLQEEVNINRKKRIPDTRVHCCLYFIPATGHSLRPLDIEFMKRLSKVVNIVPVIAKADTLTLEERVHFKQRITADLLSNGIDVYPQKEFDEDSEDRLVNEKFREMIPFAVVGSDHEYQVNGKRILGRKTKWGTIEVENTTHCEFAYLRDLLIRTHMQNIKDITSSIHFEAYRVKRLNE


Tests used:
[1] = target: T1, His6-SEPT9 ΔNΔC (G domain, aa 295-567); assay: pull-down; GST fusion from E. coli extract held on glutathione Sepharose beads, washed with PBS, blocked with 1.5 μM BSA; purified His6-tagged protein added at 1.5 μM for 30 min in PBS with 0.1 mM Zn2+; eluted with 10 mM reduced glutathione; SDS-PAGE and Western blot; conditions: both partners purified
[2] = target: T2, GST-EPLIN (full length, isoform alpha) (UniProt Q9UHB6-2 1-599); assay: as above; conditions: both partners purified
T2 construct: EPLIN (epithelial protein lost in neoplasm, LIMA1 product), isoform alpha, full length; ORF amplified from Addgene plasmid #40928; numbers count on: isoform alpha; Vector pGEX2T; All EPLIN constructs derive from plasmid #1 (isoform alpha); also called epithelial protein lost in neoplasm; LIMA1 product
T2 sequence (Q9UHB6 161-759): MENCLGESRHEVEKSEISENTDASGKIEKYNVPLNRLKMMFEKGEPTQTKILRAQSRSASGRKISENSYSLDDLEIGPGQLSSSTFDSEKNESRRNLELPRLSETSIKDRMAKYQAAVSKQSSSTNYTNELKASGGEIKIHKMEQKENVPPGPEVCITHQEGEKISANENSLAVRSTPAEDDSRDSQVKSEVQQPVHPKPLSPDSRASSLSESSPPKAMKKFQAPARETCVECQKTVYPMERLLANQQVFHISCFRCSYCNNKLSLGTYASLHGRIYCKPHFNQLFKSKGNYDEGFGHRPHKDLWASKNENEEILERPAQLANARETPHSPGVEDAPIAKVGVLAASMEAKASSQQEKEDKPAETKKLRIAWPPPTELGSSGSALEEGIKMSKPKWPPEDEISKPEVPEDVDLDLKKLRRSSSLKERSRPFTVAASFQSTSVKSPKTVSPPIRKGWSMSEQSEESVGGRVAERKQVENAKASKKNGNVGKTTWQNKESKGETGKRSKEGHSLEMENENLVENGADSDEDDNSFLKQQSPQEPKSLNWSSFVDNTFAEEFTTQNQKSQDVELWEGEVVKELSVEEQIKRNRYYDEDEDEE

binding result [1] | binding result [2] | Binder
binds |  | GST-EPLIN LIM (aa 228-288) (domain or fragment, EPLIN (LIMA1 product), isoform alpha, residues 228-288, the LIM domain; Vector pGEX2T; also called isolated LIM domain of EPLIN; plasmid #7) not shown
 | binds | His6-SEPT9 (full length, SEPT9i1) (natural protein, UniProt Q9UHD8 1-586, looked up, derived from plasmid #5 (EGFP-SEPT9, gift of E. Spiliotis); pES is an in-house pET15A-based plasmid for His6-tagged proteins; also called His-SEPT9; purified SEPT9; source: E. coli BL21DE3, purified (HisTrap IMAC, buffered in PBS by PD10)) MKKSYSGGTRTSSGRLRRLGDSSGPALKRSFEVEEVETPNSTPPRRVQTPLLRATVASSTQKFQDLGVKNSEPSARHVDSLSQRSPKASLRRVELSGPKAAEPVSRRTELSIDISSKQVENAGAIGPSRFGLKRAEVLGHKTPEPAPRRTEITIVKPQESAHRRMEPPASKVPEVPTAPATDAAPKRVEIQMPKPAEAPTAPSPAQTLENSEPAPVSQLQSRLEPKPQPPVAEATPRSQEATEAAPSCVGDMADTPRDAGLKQAPASRNEKAPVDFGYVGIDSILEQMRRKAMKQGFEFNIMVVGQSGLGKSTLINTLFKSKISRKSVQPTSEERIPKTIEIKSITHDIEEKGVRMKLTVIDTPGFGDHINNENCWQPIMKFINDQYEKYLQEEVNINRKKRIPDTRVHCCLYFIPATGHSLRPLDIEFMKRLSKVVNIVPVIAKADTLTLEERVHFKQRITADLLSNGIDVYPQKEFDEDSEDRLVNEKFREMIPFAVVGSDHEYQVNGKRILGRKTKWGTIEVENTTHCEFAYLRDLLIRTHMQNIKDITSSIHFEAYRVKRLNEGSSAMANGMEEKEPEAPEM
